Measured values: patent US20070093443A1

Molecular target: Complement C2 (human) (human) (UniProt P06681)
Test: cell-based or functional assay

Sequence of Complement C2 (human) (human) (P06681 21-752 limits assumed): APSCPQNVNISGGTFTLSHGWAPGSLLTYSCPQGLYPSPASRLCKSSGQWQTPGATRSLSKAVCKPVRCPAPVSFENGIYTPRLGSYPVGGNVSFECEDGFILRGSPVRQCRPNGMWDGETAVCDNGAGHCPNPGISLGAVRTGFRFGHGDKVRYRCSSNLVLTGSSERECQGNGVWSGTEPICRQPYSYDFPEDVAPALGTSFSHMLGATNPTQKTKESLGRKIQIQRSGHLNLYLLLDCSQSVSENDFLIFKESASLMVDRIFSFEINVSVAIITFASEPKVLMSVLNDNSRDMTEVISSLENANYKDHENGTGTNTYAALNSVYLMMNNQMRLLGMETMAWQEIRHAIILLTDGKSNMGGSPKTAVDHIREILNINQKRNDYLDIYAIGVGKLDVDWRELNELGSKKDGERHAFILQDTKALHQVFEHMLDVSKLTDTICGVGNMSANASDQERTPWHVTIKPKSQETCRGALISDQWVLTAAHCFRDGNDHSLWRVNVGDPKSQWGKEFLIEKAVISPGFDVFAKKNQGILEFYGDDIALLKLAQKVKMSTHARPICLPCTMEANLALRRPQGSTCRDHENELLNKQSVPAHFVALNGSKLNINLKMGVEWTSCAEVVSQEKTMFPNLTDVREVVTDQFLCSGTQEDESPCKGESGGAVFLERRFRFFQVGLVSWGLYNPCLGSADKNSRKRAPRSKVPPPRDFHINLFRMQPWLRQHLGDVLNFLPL

For “modified MT-SP1 CB42 (Y146E) protease domain (from UniProt Q9Y5Y6 615-855) (enzyme)”, the IC50 of the proteases for cleavage of C2 (Western blot densitometry, 5% human plasma, 1 h 37 C) was 11.9 nM.
For “wildtype MT-SP1 protease domain (CB200) (from UniProt Q9Y5Y6 615-855) (enzyme)”, the IC50 of the proteases for cleavage of C2 (Western blot densitometry, 5% human plasma, 1 h 37 C) was 15.7 nM.
